Source: patent US20190002539A1 (NATIONAL CENTER FOR AIDS STD CONTROL AND PREVENTION CHINESE …, published 2019)

Legend:
wild-type (WT) YU2 gp120 = target: T1, wild-type (WT) YU2 gp120 (HIV-1, UniProt P35961 32-498); assay: ELISA, antigen coated at 2 µg/ml
T1 construct: domain: gp120

[1] = target: HIV-1 Env of pseudovirus PV0.4 (HIV-1); assay: cell-based or functional assay
[2] = target: HIV-1 Env of pseudovirus CH110 (HIV-1); assay: cell-based or functional assay
[3] = target: HIV-1 Env of pseudovirus AC10 (HIV-1); assay: cell-based or functional assay
[4] = target: HIV-1 Env of pseudovirus BJMSM2498 (HIV-1); assay: cell-based or functional assay
[5] = target: HIV-1 Env of pseudovirus Q769 (HIV-1); assay: cell-based or functional assay
[6] = target: HIV-1 Env of pseudovirus REJO4541 (HIV-1); assay: cell-based or functional assay
[7] = target: HIV-1 Env of pseudovirus QH0692 (HIV-1); assay: cell-based or functional assay
[8] = target: HIV-1 Env of pseudovirus BJMSM2316 (HIV-1); assay: cell-based or functional assay
[9] = target: HIV-1 Env of pseudovirus Q461 (HIV-1); assay: cell-based or functional assay
[10] = target: HIV-1 Env of pseudovirus CH120 (HIV-1); assay: cell-based or functional assay
[11] = target: HIV-1 Env of pseudovirus SF162 (HIV-1, UniProt P19550 32-847); assay: cell-based or functional assay
[12] = target: HIV-1 Env of pseudovirus RHPA4259 (HIV-1); assay: cell-based or functional assay
[13] = target: HIV-1 Env of pseudovirus TRJO4551 (HIV-1); assay: cell-based or functional assay
[14] = target: HIV-1 Env of pseudovirus MW965 (HIV-1); assay: cell-based or functional assay
[15] = target: HIV-1 Env of pseudovirus CH181 (HIV-1); assay: cell-based or functional assay
[16] = target: HIV-1 Env of pseudovirus Q259 (HIV-1); assay: cell-based or functional assay
[17] = target: HIV-1 Env of pseudovirus ZM109F (HIV-1); assay: cell-based or functional assay
[18] = target: HIV-1 Env of pseudovirus CAP45 (HIV-1); assay: cell-based or functional assay
[19] = target: HIV-1 Env of pseudovirus CAAN5342 (HIV-1); assay: cell-based or functional assay
[20] = target: HIV-1 Env of pseudovirus SC422661 (HIV-1); assay: cell-based or functional assay
[21] = target: HIV-1 Env of pseudovirus CH117 (HIV-1); assay: cell-based or functional assay
[22] = target: HIV-1 Env of pseudovirus BJMSM2249 (HIV-1); assay: cell-based or functional assay
[23] = target: HIV-1 Env of pseudovirus Q842 (HIV-1); assay: cell-based or functional assay
[24] = target: HIV-1 Env of pseudovirus Du422 (HIV-1); assay: cell-based or functional assay
[25] = target: HIV-1 Env of pseudovirus ZM249M (HIV-1); assay: cell-based or functional assay
[26] = target: HIV-1 Env of pseudovirus X1632 (HIV-1); assay: cell-based or functional assay
[27] = target: HIV-1 Env of pseudovirus CNE8 (HIV-1); assay: cell-based or functional assay
[28] = target: HIV-1 Env of pseudovirus BJOX2000 (HIV-1); assay: cell-based or functional assay
[29] = target: HIV-1 Env of pseudovirus TRO.11 (HIV-1); assay: cell-based or functional assay
[30] = target: HIV-1 Env of pseudovirus Ce1176 (HIV-1); assay: cell-based or functional assay
[31] = target: HIV-1 Env of pseudovirus 25710 (HIV-1); assay: cell-based or functional assay
[32] = target: HIV-1 Env of pseudovirus CH119.10 (HIV-1); assay: cell-based or functional assay
[33] = target: HIV-1 Env of pseudovirus 398-F1 (HIV-1); assay: cell-based or functional assay
[34] = target: HIV-1 Env of pseudovirus Ce0217 (HIV-1); assay: cell-based or functional assay
[35] = target: HIV-1 Env of pseudovirus CNE55 (HIV-1); assay: cell-based or functional assay
[36] = target: HIV-1 Env of pseudovirus 246 (HIV-1); assay: cell-based or functional assay
[37] = target: HIV-1 Env of pseudovirus X2278 (HIV-1); assay: cell-based or functional assay

B1: monoclonal antibody DRVIA7H+VRC01L (antibody, V domains shown)
VH: QVQLVESGTQFRRPGASVRLSCEASGYTFISSFIHWIRQGPGQGLEWMGWMNPRHGAVNYPRRFQGKVTMTRDTSIDTAYMELRDLRSDDTAMYFCVTSRTKDYDWDFVWGQGTLVVVSS
VL: EIVLTQSPGTLSLSPGETAIISCRTSQYGSLAWYQQRPGQAPRLVIYSGSTRAAGIPDRFSGSRWGPDYNLTISNLESGDFGVYYCQQYEFFGQGTKVQVDI
In the case of B1, the binding result (wild-type (WT) YU2 gp120) is reported as “binds”, the “IC50 in µg/ml, TZM-bl/pseudovirus neutralizing assay” value (“IC50 in µg/ml” below) [1] is reported as 1.18 µg/mL and the “IC50 in µg/ml” value [2] is reported as 0.15 µg/mL. For the same binder, the “IC50 in µg/ml” value [3] was 15.5 µg/mL, the “IC50 in µg/ml” value [4] was 4.32 µg/mL and the “IC50 in µg/ml” value [5] was 0.3 µg/mL. For the same binder, the “IC50 in µg/ml” value [6] was 0.75 µg/mL, the “IC50 in µg/ml” value [7] was 2.03 µg/mL and the “IC50 in µg/ml” value [8] was 0.47 µg/mL. For the same binder, the “IC50 in µg/ml” value [9] was 1.4 µg/mL, the “IC50 in µg/ml” value [10] was 6.53 µg/mL and the “IC50 in µg/ml” value [11] was 0.3 µg/mL. The “IC50 in µg/ml” value [12] was 0.34 µg/mL, the “IC50 in µg/ml” value [13] was 1.44 µg/mL and the “IC50 in µg/ml” value [14] was 0.2 µg/mL. For the same binder, the “IC50 in µg/ml” value [15] was 0.98 µg/mL, the “IC50 in µg/ml” value [16] was > 20 µg/mL and the “IC50 in µg/ml” value [17] was 0.59 µg/mL. The “IC50 in µg/ml” value [18] was 0.84 µg/mL, the “IC50 in µg/ml” value [19] was 3.4 µg/mL and the “IC50 in µg/ml” value [20] was 0.58 µg/mL. The “IC50 in µg/ml” value [21] was 0.59 µg/mL, the “IC50 in µg/ml” value [22] was 2.25 µg/mL and the “IC50 in µg/ml” value [23] was 0.18 µg/mL. The “IC50 in µg/ml” value [24] was > 20 µg/mL, the “IC50 in µg/ml” value [25] was 0.74 µg/mL and the “IC50 in µg/ml” value [26] was 0.61 µg/mL. For the same binder, the “IC50 in µg/ml” value [27] was 1.48 µg/mL, the “IC50 in µg/ml” value [28] was 15.9 µg/mL and the “IC50 in µg/ml” value [29] was 1.18 µg/mL. The “IC50 in µg/ml” value [30] was 4.08 µg/mL, the “IC50 in µg/ml” value [31] was 2.5 µg/mL and the “IC50 in µg/ml” value [32] was 1.85 µg/mL. For the same binder, the “IC50 in µg/ml” value [33] was 0.8 µg/mL, the “IC50 in µg/ml” value [34] was 0.65 µg/mL and the “IC50 in µg/ml” value [35] was 1.23 µg/mL. For the same binder, the “IC50 in µg/ml” value [36] was 1.29 µg/mL and the “IC50 in µg/ml” value [37] was 0.34 µg/mL.
